Source: the supplement of paper PMC10724198
± gives the standard deviation of the averaged measurements.

tested on: Saccharomyces cerevisiae; experiment: protein stability index of tFT-peptide fusion (C-terminal peptide) (PSI (0-1 scale)); higher = more stable (slower turnover); details: genetic background: wild type; temperature: 30 C
Method: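 Multiplexed protein stability (MPS) profiling in S. cerevisiae. Random 12-aa peptides (tFT-X12 library) are fused to the C-terminus of a sfGFP-mCherry tandem fluorescent timer, after mCherry and a GGGS linker. Cells are FACS-sorted into 8 mCherry/sfGFP bins and deep-sequenced. The protein stability index (PSI) is the read-weighted bin average, scaled from 0 (unstable) to 1 (stable). Only peptides with >10 reads are reported; cells were grown at 30 °C in SC-His with glucose.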
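Also: PSI is a weighted mean of sequencing reads over stability bins, variants kept only with over 10 reads, mCherry proximal and sfGFP distal, peptide attached via GGGS linker.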

In order of rising protein stability index:
1. CYVCVDVCKRGC  0.535 ± 0.18
2. DKHGELFIVCKV  0.54 ± 0.033
3. CYFKTIYRNMEY  0.541 ± 0.032
4. DLIHLVVIVPMV  0.554 ± 0.035
5. DSNLAVHRWYIS  0.573 ± 0.018
6. EEKREERGDRGR  0.579 ± 0.01
7. CVDSRRCCSCFC  0.59 ± 0.074
8. CVLFYPLLLPGV  0.599 ± 0.035
9. DRLCAAPHYGTH  0.599 ± 0.045
10. DRNGAQAEISFV  0.6 ± 0.041
11. DFWSEFILLCSV  0.6019 ± 0.0039
12. CWRVGRERRGAG  0.604 ± 0.013
13. CVTFHKGRVFLR  0.609 ± 0.031
14. DPLKSFDAVRQD  0.617 ± 0.06
15. DKKGRIKIKNRQ  0.618 ± 0.026
16. EFEDCGAWGNIG  0.621 ± 0.039
17. DHSAPIIPMMKV  0.6239 ± 0.0058
18. EGEGGKRGEGKR  0.624 ± 0.041
19. DCPHGDSPRVVS  0.628 ± 0.046
20. DGCRFEFVPSGD  0.629 ± 0.023
21. EGRGSVVGSSEG  0.633 ± 0.035
22. ECRGGPGLGGGV  0.635 ± 0.046
23. DLKGCVTFCTSI  0.638 ± 0.049
24. EGVKSGDGGAGG  0.63832 ± 0.00019
25. EGGETLLGAKGR  0.639 ± 0.013
26. DGHSMFNRLIRS  0.64232 ± 0.00017
27. DGSRSFSYSTAG  0.642 ± 0.1
28. DSPRSLALFRSC  0.642 ± 0.028
29. DSSLHRLASLKT  0.643 ± 0.075
30. EAEEVGRVVLKG  0.643 ± 0.067
31. DFAGVCRWSLRG  0.6446 ± 0.0025
32. DGVATLYGRDVE  0.646 ± 0.033
33. DLIKCPTNMVRL  0.646 ± 0.068
34. DGDIIVVQINKL  0.6471 ± 0.0039
35. DLLLGDCGVGWF  0.647 ± 0.056
36. DRSRLWSHPCPG  0.647 ± 0.0098
37. EEMMGGAETLHQ  0.649 ± 0.036
38. DEFRVALGSVTC  0.65 ± 0.12
39. DNQQRQKKKNKK  0.65 ± 0.013
40. DERTTLMRGNNV  0.651 ± 0.017
41. DTALMQAGSLFH  0.651 ± 0.054
42. CWYRCLLSCLVL  0.656 ± 0.033
43. DCGYPESTGTAF  0.656 ± 0.036
44. DWVYISAGGRYA  0.657 ± 0.017
45. DFPPRPTPLSSL  0.658 ± 0.033
46. DLLKFGPKVLHL  0.6592 ± 0.0023
47. CVPLPCLPLPPS  0.66 ± 0.012
48. DGVIVACWCRRS  0.66 ± 0.021
49. EDDQETPDTVQS  0.66 ± 0.014
50. CVPLPPVLPRSC  0.6607 ± 0.0018
51. CVDTNIERSCVC  0.66182 ± 0.00042
52. EFDCVGCFRTLR  0.6618 ± 0.0017
53. DIDGKRLLGCWI  0.6632 ± 0.00086
54. EDHSCVFSAFCF  0.663 ± 0.045
55. DGAVRLGGGGLG  0.664 ± 0.05
56. DQKFSPYRTPPF  0.667 ± 0.058
57. DGAAGTGGAMGF  0.669 ± 0.068
58. DRRTGRAGEMSP  0.669 ± 0.064
59. DRREKAKNMTKG  0.67 ± 0.025
60. DPEDPPRAREPQ  0.673 ± 0.038
61. EGKGKGRGEVKE  0.6733 ± 0.0064
62. EGRFRNGRAVSG  0.673 ± 0.011
63. CVSYLVIFDRRY  0.6742 ± 0.0043
64. DLSPPLPPPAHP  0.674 ± 0.044
65. DICYGVALSQVE  0.676 ± 0.045
66. EESKQKKKNEEE  0.676 ± 0.041
67. DWKLPRIEREST  0.678 ± 0.024
68. ECGNYRGPYRTR  0.678 ± 0.026
69. CYHIAHPSAYVP  0.679 ± 0.041
70. EECGVIDIILGG  0.679 ± 0.013
71. DPRPRLNCSYEH  0.68 ± 0.014
72. DGGFAAPDVIGA  0.682 ± 0.026
73. EGPVYKNIGTDV  0.6823 ± 0.0013
74. DRGCRRRCVGGG  0.683 ± 0.011
75. CVGCVVGAGVTS  0.684 ± 0.049
76. EGVGLAETAGDD  0.684 ± 0.039
77. DVLLKVDATKTP  0.685 ± 0.032
78. DQNRSTTVPRGY  0.686 ± 0.075
79. EAERDEAQRRCA  0.686 ± 0.0076
80. EANEENNSSKRD  0.686 ± 0.03
81. CWQMTWSEGLGN  0.687 ± 0.038
82. DKGTGYIVKRIT  0.6872 ± 0.0044
83. DACIVRFRDTYL  0.688 ± 0.018
84. CVGPGGACVRSG  0.6894 ± 0.0017
85. ECSFAGIWVDLG  0.689 ± 0.047
86. DNRKIRSEKITP  0.69 ± 0.099
87. DRGGCRRAGSCQ  0.69 ± 0.018
88. DKWVRDCLTESR  0.691 ± 0.014
89. DPRPPRPDFRPS  0.691 ± 0.072
90. DRVMTLRLTVNP  0.691 ± 0.03
91. DLRDQDAQTTST  0.692 ± 0.0088
92. DSSKFYTPATLL  0.693 ± 0.048
93. EELGGGTRNYEG  0.693 ± 0.018
94. DRTDTNVKWRKK  0.696 ± 0.0077
95. DGVRGWVGVAGD  0.698 ± 0.039
96. DKKKKTKINNKK  0.698 ± 0.01
97. EGAGRRYRCGWG  0.698 ± 0.049
98. DSKDLTPATQVS  0.699 ± 0.013
99. EFRQVDGRASRP  0.701 ± 0.0049
100. CVGSVEVGHSGI  0.702 ± 0.02
101. CYTGMIRSTPLS  0.702 ± 0.064
102. EEKRKRKSQNEI  0.702 ± 0.045
103. DWEPGGGGRMVG  0.703 ± 0.081
104. EALELALTWHCV  0.7029 ± 0.0058
105. DLMFSLFPLSFF  0.704 ± 0.0076
106. DPCWLEFRESGG  0.704 ± 0.12
107. DSSAFVPATILD  0.705 ± 0.026
108. DSSLCFAGLHNT  0.705 ± 0.054
109. DGECVLGVFVGA  0.706 ± 0.045
110. DPPSPLPRVSPP  0.706 ± 0.068
111. DGVSRSHFQCVS  0.708 ± 0.044
112. DPSMSNRDRRLP  0.708 ± 0.036
113. DSMLACIHPSPI  0.708 ± 0.0064
114. EGKKEKKGSKGE  0.708 ± 0.052
115. DVRVFQMLQGDI  0.709 ± 0.012
116. DGNDSILTKLPL  0.714 ± 0.021
117. DGRYVDSEIDNP  0.714 ± 0.059
118. CVKKERCDSCRV  0.715 ± 0.07
119. DDSFNPWSVRVH  0.7154 ± 0.006
120. DANRSPEYSLNG  0.7169 ± 0.0062
121. DLGRRRVGPKGA  0.717 ± 0.024
122. CVLFSGLSVDGC  0.7215 ± 0.004
123. DRLNLFSSFEGT  0.721 ± 0.053
124. DSQGSVHPEAQE  0.723 ± 0.012
125. EGGRGGVLMRGV  0.727 ± 0.013
126. EEKEKKEKDGRR  0.728 ± 0.042
127. DHLPSPRPRPPP  0.7295 ± 0.0012
128. DSSLSRPGRLLP  0.73 ± 0.012
129. DERLEIKERLEF  0.739 ± 0.071
130. DQVDGLFTCSAR  0.739 ± 0.027
131. DRLLLSPSPTPP  0.739 ± 0.013
132. DRPTPPPRSSPL  0.739 ± 0.058
133. DLFSALWGEYVL  0.741 ± 0.013
134. EGDIFSGFPSFQ  0.741 ± 0.065
135. DIRVFFNSREGN  0.742 ± 0.022
136. DLGQVLSEASAS  0.742 ± 0.034
137. DGGSEIWGWDGT  0.743 ± 0.12
138. DDSQKLTNNNEG  0.744 ± 0.013
139. DEGLLPLPAVIP  0.746 ± 0.04
140. DGKAGRKGFWRK  0.746 ± 0.023
141. DRHGLVGGWWAW  0.7459 ± 0.0052
142. DRWGGDWMERGG  0.749 ± 0.05
143. DTPLIYSLKSEC  0.7511 ± 0.0022
144. DVTKLVLSIDSC  0.751 ± 0.052
145. DRLVGRVGGHGM  0.755 ± 0.14
146. DRSSVLSPFHPL  0.76 ± 0.019
147. DWVDFFQSVIWI  0.761 ± 0.0079
148. EFRCRGPWGLEE  0.761 ± 0.17
149. DSVSLPYVSRPL  0.768 ± 0.041
150. CVPLSAIFSAFT  0.77 ± 0.022
151. DSLWACVGSSAL  0.771 ± 0.024
152. DIKKLNKKAKIK  0.777 ± 0.15
153. EAFARGAPNQTS  0.804 ± 0.066
154. EFPRDLVFDWYG  0.857
155. EGGVRSRVRSRL  0.863 ± 0.063
